Data from US20250326860A1 (ADAGENE PTE, published 2025).
Where “and” joins values, the source holds several entries; their conditions need not be identical. Identical values can stand only once.

T1: cynomolgus monkey CD20 on B cells (cynomolgus monkey, UniProt M4ZHZ6 1-297)
T1 construct: whole, on cells
T1 sequence: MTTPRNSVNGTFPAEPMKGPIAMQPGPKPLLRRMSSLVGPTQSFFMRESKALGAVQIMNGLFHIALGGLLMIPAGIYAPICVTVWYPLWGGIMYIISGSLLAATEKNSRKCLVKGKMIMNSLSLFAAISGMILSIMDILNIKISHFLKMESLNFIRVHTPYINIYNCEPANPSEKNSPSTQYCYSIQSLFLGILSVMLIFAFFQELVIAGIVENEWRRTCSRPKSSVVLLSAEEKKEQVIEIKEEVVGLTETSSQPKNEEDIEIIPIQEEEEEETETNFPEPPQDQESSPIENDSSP

T2: human CD20 on cells (human B cells; Raji, SU-DHL-8, SU-DHL-4, A3KAW, NAMALWA) (human, UniProt P11836 1-297)
T2 construct: whole, on cells
T2 sequence (looked up): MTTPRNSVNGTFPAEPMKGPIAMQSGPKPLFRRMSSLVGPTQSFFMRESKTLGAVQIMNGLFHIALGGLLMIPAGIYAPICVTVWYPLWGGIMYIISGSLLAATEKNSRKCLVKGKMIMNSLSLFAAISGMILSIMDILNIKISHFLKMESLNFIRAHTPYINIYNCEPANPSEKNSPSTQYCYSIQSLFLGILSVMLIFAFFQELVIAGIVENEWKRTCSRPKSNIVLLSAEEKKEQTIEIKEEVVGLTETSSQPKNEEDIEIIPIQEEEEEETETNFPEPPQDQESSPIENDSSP


Key:
[1] = molecular target: T3, human CD3 on cells (Jurkat cells, human T cells) (human, UniProt P07766 23-207); test: cell-based or functional assay
[2] = molecular target: T3, human CD3 on cells (Jurkat cells, human …); test: flow cytometry on Jurkat cells, APC anti-human IgG secondary antibody
Experimental: The Jurkat cells were thawed, washed, and cultured in an incubator. Jurkat cells were washed and 1×10⁵ Jurkat cells/well were aliquoted into 96-well plate and incubated with test articles for 1 hour at 4° C. After centrifugation and washing, Jurkat cells were further incubated with the secondary antibody APC anti-Human IgG for 30 minutes at 4° C. After centrifugation and washing, the Jurkat cells labelled with antibodies were re-suspended in 2% FBS DPBS and then were analyzed by FACS.

[3] = molecular target: T3, human CD3 on cells (Jurkat cells, human …); test: binding to human CD3+ T cells
[4] = molecular target: T1, cynomolgus monkey CD20 on B cells; test: flow cytometry, monkey B cells
[5] = molecular target: T4, cynomolgus monkey CD3 on T cells (cynomolgus monkey, UniProt Q95LI5 22-198); test: flow cytometry, monkey CD8+ T cells
T4 construct: whole, on cells
Experimental: (§1) Binding of CD20xCD3 bispecific or SAFE-bispecific antibodies to purified human CD3+ T cells was determined by flow cytometry. Briefly, human or monkey PBMC were freshly purified with Ficoll gradient solution—Histopaque 1077 (Sigma) from a healthy donor and CD3+ T cells were isolated using EasySep™ Human T cell Enrichment Kit (StemCell). Before staining, […] human Fc receptors on CD3+ T cells were blocked with Human Fc Block (BD). Then cells were incubated with fluorescence labeled antibody mixture (APC-Cy7 Mouse Anti-human CD3, PerCP-CyTM5.5 Anti-human CD4 and FITC anti-human CD8) for 15 minutes at 4° C. After washing the cells once with PBS supplemented with 2% FBS, cells were aliquoted to 96-well plates at 2×10⁵ cells per well, and cells were incubated with serial diluted bispecific, SAFE-bispecific or IgG1 isotype control antibodies for 30 minutes at 4° C. After washing the cells twice with PBS supplemented with 2% FBS, cell surface bound antibody was detected by incubating the cells with APC-labeled mouse anti-human IgG Fc secondary antibody for 30 minutes at 4° C. Cells were washed and detected by FACS using Cytoflex (BeckMan) and data was analyzed by FlowJo. The mean fluorescence (MFI) of each antibody binding to human or monkey CD4+ T cells and CD8+ T cell populations were fitted with four-parameter non-linear regression to get EC₅₀ values by GraphPad Prism software.

[6] = molecular target: T4, cynomolgus monkey CD3 on T cells; test: flow cytometry, monkey CD3+ T cells
Description: (§2) Human PBMCs were freshly isolated from the blood of healthy donors by density gradient centrifugation using Histopaque-1077 (Sigma). Human CD3+ T cells were further isolated from PBMCs using the Human T Cell Enrichment Kit (Stem Cell Technologies). Monkey PBMCs were isolated from a naïve cynomolgus monkey by density gradient centrifugation using Histopaque-1077 (Sigma). Monkey CD3+ T cells were isolated from PBMCs using the Pan T Cell Isolation Kit Non-Human Primate (Miltenyi Biotec). Purified human or monkey CD3+ T cells were stained with the testing antibodies as the primary antibody and the APC-labelled anti-human-Fc antibody (BioLegend) as the secondary antibody. After washing, the cells were analyzed on the CytoFLEX flow cytometer (Beckman Coulter) and the data was analyzed by FlowJo software.

[7] = molecular target: T3, human CD3 on cells (Jurkat cells, human …); test: binding to human CD8+ T cells
[8] = molecular target: T3, human CD3 on cells (Jurkat cells, human …); test: binding to human CD4+ T cells
[9] = molecular target: T4, cynomolgus monkey CD3 on T cells; test: flow cytometry, monkey CD4+ T cells
Experimental: as §1

[10] = molecular target: T2, human CD20 on cells (human B cells; …); test: flow cytometry, human B cells
Experimental: After washing the cells twice with PBS supplemented with 2% FBS, cell surface bound antibody was detected by incubating the cells with APC-labeled mouse anti-human IgG Fc secondary antibody for 30 minutes at 4° C. Cells were washed and detected by FACS using Cytoflex (BeckMan) and data was analyzed by FlowJo.

[11] = molecular target: T3, human CD3 on cells (Jurkat cells, human …); test: flow cytometry, human CD3+ T cells
Description: as §2

T4 sequence (Q95LI5 22-198): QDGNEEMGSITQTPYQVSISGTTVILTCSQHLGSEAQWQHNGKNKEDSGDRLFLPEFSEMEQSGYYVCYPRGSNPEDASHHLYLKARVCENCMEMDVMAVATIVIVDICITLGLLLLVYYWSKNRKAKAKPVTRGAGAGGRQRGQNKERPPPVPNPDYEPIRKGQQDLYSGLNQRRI
T3 sequence (P07766 23-207): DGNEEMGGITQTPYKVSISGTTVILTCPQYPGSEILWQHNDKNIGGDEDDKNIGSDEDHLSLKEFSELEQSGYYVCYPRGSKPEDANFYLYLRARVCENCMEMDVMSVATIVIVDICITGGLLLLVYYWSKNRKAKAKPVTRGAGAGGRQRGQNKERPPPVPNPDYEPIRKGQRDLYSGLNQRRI

Jurkat NFAT reporter assay EC50 [1] [nM]	Masking efficiency (Jurkat NFAT reporter assay) [1] [fold]	EC50 (read off the curve) [2]	EC50 [3] [nM]	EC50 [4] [nM]	EC50 [5] [nM]	EC50 [6] [nM]	max MFI [6] [MFI]	EC50 [7] [nM]	EC50 [8] [nM]	EC50 [9] [nM]	binding result [10]	EC50 [11] [nM]	max MFI [11] [MFI]	Binder
0.02	1	~0.7 nM and ~0.3 nM and ~0.5 nM and ~0.6 nM	–	–	–	–	–	–	–	–	–	–	–	TAC2225 (antibody, V domains shown, also called parental cross-reactive anti-CD3 antibody; humanized SP34) VH: EVQLVESGGGLVQPGGSLRLSCAASGFTFNTYAMNWVRQAPGKGLEWVGRIRSKYNNYATYYADSVKGRFTISRDDSKNTLYLQMNSLRAEDTAVYYCVRHGNFGNSYVSWFAYWGQGTLVTVSS VL: QAVVTQEPSLTVSPGGTVTLTCGSSTGAVTTSNYANWVQQKPGQAPRGLIGGTNKRAPGVPARFSGSLLGGKAALTLSGAQPEDEAEYYCALWYSNLWVFGGGTKLTVL
–	–	–	21.7	39.1	82.1	10.5	2100	25.4	18.1	27.3	binds	9.52	4850	TY25455 (bispecific antibody, human IgG1, kappa, N297A, also called parental CD20xCD3 bispecific antibody of TY25606; TY2455) light: QIVLSQSPAILSASPGEKVTMTCRASSSVSYIHWFQQKPGKSPKPWIYATSNLASGVPVRFSGSGSGTSYSLTISRVEAEDAATYYCQQWTSNPPTFGGGTKVEIKRTVAAPSVFIFPPSDEQLKSGTASVVCLLNNFYPREAKVQWKVDNALQSGNSQESVTEQDSKDSTYSLSSTLTLSKADYEKHKVYACEVTHQGLSSPVTKSFNRGEC heavy: EVQLVQSGAEVKKPGSSVKVSCKASGYTFTSYNMHWVRQAPGKGLEWIGAIYPGSGDTSYNQKFKGRVTITADKSTSTAYMELSSLRSEDTAVYYCARSTYYGGDWYFNVWGQGTLVTVSSASTKGPSVFPLAPSSKSTSGGTAALGCLVKDYFPEPVTVSWNSGALTSGVHTFPAVLQSSGLYSLSSVVTVPSSSLGTQTYICNVNHKPSNTKVDKKVEPKSCDKTHTCPPCPAPELLGGPSVFLFPPKPKDTLMISRTPEVTCVVVDVSHEDPEVKFNWYVDGVEVHNAKTKPREEQYASTYRVVSVLTVLHQDWLNGKEYKCKVSNKALPAPIEKTISKAKGQPREPQVYTLPPSRKKLTKNQVKLTCLVKGFYPSDIAVEWESNGQPENNYKTTPPVLDCDGSFFLYSKLTVDKSRWQQGNVFSCSVMHEALHNHYTQKSLSLSPGK QAVVTQEPSLTVSPGGTVTLTCGSSTGAVTTSNYPNWVQQKPGQAPRGLIGGTNKRAPGVPARFSGSLLGGKAALTLSGAQPEDEAEYYCALWYSNLWVFGGGTKLTVLGGGGSGGGGSGGGGSGGGGSEVQLVESGGGLVQPGGSLRLSCAASGFTFNTYAINWVRQAPGKGLEWVGRIRSKYNNYATYYAESVKGRFTISRDDSKNTLYLQINSLRAEDTAVYYCVRHGNFGTSYVSWFAYWGQGTLVTVSSEPKSSDKTHTCPPCPAPELLGGPSVFLFPPKPKDTLMISRTPEVTCVVVDVSHEDPEVKFNWYVDGVEVHNAKTKPREEQYASTYRVVSVLTVLHQDWLNGKEYKCKVSNKALPAPIEKTISKAKGQPREPQVYTDPPSRDELTKNQVSLTCLVDGFYPSDIAVEWESNGQPENCYKTTPPVLDSDGSFFLYSKLTVDKSRWQQGNVFSCSVMHEALHNHYTQDSLSLSPGK
